Measurements published in patent US20020151463A1 (UT BATTELLE, published 2002).

B1: recombinant murine agouti protein (ligand)
chain: HLALEETLGDDRSLRSNSSMNSLDFSSVSIVALNKKSKKISRKEAEKRKRSSKKKASMKKVARPPPPSPCVATRDSCKPPAPACCDPCASCQCRFFGSACTCRVLNPNC
notes: Full-length mouse agouti cDNA expressed by baculovirus in T. ni cells; also called mouse agouti; agouti polypeptide
B2: recombinant human agouti protein (ligand)
chain: HLPPEEKLRDDRSLRSNSSVNLLDVPSVSIVALNKKSKQIGRKAAEKKRSSKKEASMKKVVRPRTPLSAPCVATRNSCKPPAPACCDPCASCQCRFFRSACSCRVLSLNC

Key:
murine MSH receptor [1] = molecular target: T1, murine MSH receptor (mouse, UniProt Q01727 1-315); experiment: cell-based or functional assay
T1 sequence (Q01727 whole entry): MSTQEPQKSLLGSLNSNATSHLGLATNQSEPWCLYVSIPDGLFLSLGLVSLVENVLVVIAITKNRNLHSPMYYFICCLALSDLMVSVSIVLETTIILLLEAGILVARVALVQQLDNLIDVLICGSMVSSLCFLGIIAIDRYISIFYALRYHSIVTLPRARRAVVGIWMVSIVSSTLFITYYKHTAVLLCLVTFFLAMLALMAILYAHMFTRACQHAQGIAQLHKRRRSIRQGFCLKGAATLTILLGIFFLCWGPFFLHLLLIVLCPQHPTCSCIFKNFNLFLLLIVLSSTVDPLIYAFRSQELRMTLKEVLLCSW

murine MSH receptor [2] = molecular target: T1, murine MSH receptor; experiment: competition binding against 125I-ACTH1-39 on Cloudman M-3 melanoma cells, single-site model
Experimental: To investigate this further, the ability of the protein to compete with another melanocortin peptide for binding to the mouse MSH-R was examined. […] Competition binding studies were performed with ¹²⁵I-labelled ACTH₁₋₃₉ and the M-3 subclone of the Cloudman murine melanoma cell line.

human MSH receptor = human MSH receptor (human, UniProt Q01726 1-317); experiment: cell-based or functional assay
human MSH receptor, sequence (Q01726 whole entry): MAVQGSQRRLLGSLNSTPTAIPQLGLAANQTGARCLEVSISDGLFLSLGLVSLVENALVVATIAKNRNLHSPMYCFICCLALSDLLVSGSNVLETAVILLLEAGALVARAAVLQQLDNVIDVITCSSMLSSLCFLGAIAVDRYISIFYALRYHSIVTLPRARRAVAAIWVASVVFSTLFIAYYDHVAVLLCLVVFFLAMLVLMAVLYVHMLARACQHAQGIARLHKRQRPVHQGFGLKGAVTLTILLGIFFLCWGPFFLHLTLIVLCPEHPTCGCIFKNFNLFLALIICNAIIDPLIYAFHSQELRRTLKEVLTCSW

Binder	apparent Ki (antagonism of α-MSH-stimulated adenylyl cyclase, four independent studies) (murine MSH receptor [1]) [nM]	IC50 (murine MSH receptor [2]) [ng/mL]	Ki (murine MSH receptor [2]) [nM]	EC50 of the [Ca^2+]i dose response in the HEK-293 MC1R line (human MSH receptor) [nM]
B1	0.32	1.2	0.66	
B2				~18
